We go through 4 molecules from patent US20140087995A1 (published 2014).

Numbered stars: 1 amine (or outer) side, 2 acyl side, 3 side chain; on linkers, the order of the positions; unused ones are H or OH. Bridge positions count the residues as written; N and C are the ends. Side chains are listed from the residue outwards. Ends that are not written are not given here. * marks the point of attachment. C20 diacid = O=C(O)CCCCCCCCCCCCCCCCCCC(=O)*; γGlu = O=C(O)[C@H](CCC(=O)[*:2])N[*:1]; AEEA = NCCOCCOCC(=O)O

For assay [1], the target named is T1, human calcitonin receptor (human, UniProt P30988 25-474).
T1 construct: whole, on cells; Used as cell membranes; also called hCTR; hCT
T1 sequence (looked up): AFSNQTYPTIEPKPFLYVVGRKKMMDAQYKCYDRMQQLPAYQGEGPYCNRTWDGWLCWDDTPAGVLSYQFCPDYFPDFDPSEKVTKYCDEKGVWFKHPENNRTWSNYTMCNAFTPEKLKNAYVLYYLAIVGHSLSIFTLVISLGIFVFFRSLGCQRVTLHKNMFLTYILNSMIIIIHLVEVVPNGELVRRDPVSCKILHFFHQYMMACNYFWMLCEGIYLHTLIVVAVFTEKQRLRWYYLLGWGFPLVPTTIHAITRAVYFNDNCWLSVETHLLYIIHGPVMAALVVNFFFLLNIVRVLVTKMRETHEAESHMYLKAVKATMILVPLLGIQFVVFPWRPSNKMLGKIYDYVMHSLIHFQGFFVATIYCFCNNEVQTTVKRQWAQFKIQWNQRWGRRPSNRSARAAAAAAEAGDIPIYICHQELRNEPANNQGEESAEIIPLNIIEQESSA
The assay is described as follows: ratio of hCTR IC50 to hAmylin-R IC50 (reference: human amylin receptor). The method, then:
The resulting pellet was resuspended, homogenized and centrifuged (20.000 rpm, 15 min) in a buffer containing 20 mM Na-HEPES and 0.1 mM EDTA (pH 7.4, buffer 2). The resulting pellet was resuspended in buffer 2 and protein concentration was measured (BCA protein Assay, Pierce). The homogenate was kept cold during the whole procedure. The membranes were kept at −80° C. until use. The assay was performed in a 384 well Optiplate (PerkinElmer) in a total volume of 40 ul. Membranes were mixed with SPA beads. Final concentration of membranes 35 ng/μL final and SPA beads was 0.05 mg/well. Test-compounds were dissolved in DMSO and further diluted in assay buffer (50 mM Hepes, pH 7.4, 1 mM CaCl2, 5 mM MgCl₂, 0.1% OA and 0.02% Tween20). […] The final mixture was incubated with shaking at 400 rpm for 120 min at 25° C. prior to centrifugation (1500 rpm, 10 min). Samples were analyzed on TopCounter™ (Packard). The IC₅₀ was calculated using (one site binding competition analysis) GraphPad Prism5 as a measure of receptor affinity.
Membranes were prepared in the following way; the cells were rinsed with PBS and incubated with Versene for approximately 5 min before harvesting. The cells were flushed with PBS and the cell-suspension was centrifuged for 5 min at 1000 rpm. Cells were homogenized (Ultrathurrax) in a buffer containing 20 mM Na-HEPES and 10 mM EDTA (pH 7.4) and centrifuged at 20.000 rpm for 15 min. The resulting pellet was resuspended, homogenized and centrifuged (20.000 rpm, 15 min) in a buffer containing 20 mM Na-HEPES and 0.1 mM EDTA (pH 7.4, buffer 2). The resulting pellet was resuspended in buffer 2 and protein concentration was measured (BCA protein Assay, Pierce). The homogenate was kept cold during the whole procedure. The membranes were kept at −80° C. until use. Assay was performed in a 384 well Optiplate (PerkinElmer) in a total volume of 40 ul. Membranes were mixed with SPA beads.

Assay [2] addresses T1, human calcitonin receptor. Kind of assay: SPA competition on BHK cell membranes, 125I-calcitonin as radioligand (Assay VII). The method, then:
Membranes were prepared in the following way; the cells were rinsed with PBS and incubated with Versene for approximately 5 min before harvesting. The cells were flushed with PBS and the cell-suspension was centrifuged for 5 min at 1000 rpm. Cells were homogenized (Ultrathurrax) in a buffer containing 20 mM Na-HEPES and 10 mM EDTA (pH 7.4) and centrifuged at 20.000 rpm for 15 min. The resulting pellet was resuspended, homogenized and centrifuged (20.000 rpm, 15 min) in a buffer containing 20 mM Na-HEPES and 0.1 mM EDTA (pH 7.4, buffer 2). The resulting pellet was resuspended in buffer 2 and protein concentration was measured (BCA protein Assay, Pierce). The homogenate was kept cold during the whole procedure. The membranes were kept at −80° C. until use. Assay was performed in a 384 well Optiplate (PerkinElmer) in a total volume of 40 ul. Membranes were mixed with SPA beads. Final concentration of membranes 35 ng/μL final and Final concentration of SPA beads was 0.05 mg/well. Test-compounds were dissolved in DMSO and further diluted in assay buffer (50 mM Hepes, pH 7.4, 1 mM CaCl2, 5 mM MgCl₂, 0.1% OA and 0.02% Tween20). […] The final mixture was incubated for 120 min with shaking at 400 rpm at 25° C. prior to centrifugation (1500 rpm, 10 min). Samples were analyzed on TopCounter™ (Packard). The […] was calculated using (one site binding competition analysis) GraphPad Prism5 as a measure of receptor affinity.

What is called IC50 is the concentration that inhibits the measured activity by half.

B1: N^ε1-[2-[2-[2-[[(4S)-4-carboxy-4-(19-carboxynonadecanoylamino)butanoyl]amino]ethoxy]ethoxy]acetyl]-[Arg14,Arg17,Pro21,Pro27]-h-amylin (peptide)
peptide: K([AEEA-γGlu-C20 diacid])CNTATCATQRLARFLRHSSPNFGAIPSSTNVGSNTY-NH2
modifications: disulfide 2-7; N-terminus assumed
SMILES: CC[C@H](C)[C@H](NC(=O)[C@H](C)NC(=O)CNC(=O)[C@H](Cc1ccccc1)NC(=O)[C@H](CC(N)=O)NC(=O)[C@@H]1CCCN1C(=O)[C@H](CO)NC(=O)[C@H](CO)NC(=O)[C@H](Cc1c[nH]cn1)NC(=O)[C@H](CCCNC(=N)N)NC(=O)[C@H](CC(C)C)NC(=O)[C@H](Cc1ccccc1)NC(=O)[C@H](CCCNC(=N)N)NC(=O)[C@H](C)NC(=O)[C@H](CC(C)C)NC(=O)[C@H](CCCNC(=N)N)NC(=O)[C@H](CCC(N)=O)NC(=O)[C@@H](NC(=O)[C@H](C)NC(=O)[C@@H]1CSSC[C@H](NC(=O)[C@@H](N)CCCCNC(=O)COCCOCCNC(=O)CC[C@H](NC(=O)CCCCCCCCCCCCCCCCCCC(=O)O)C(=O)O)C(=O)N[C@@H](CC(N)=O)C(=O)N[C@@H]([C@@H](C)O)C(=O)N[C@@H](C)C(=O)N[C@@H]([C@@H](C)O)C(=O)N1)[C@@H](C)O)C(=O)N1CCC[C@H]1C(=O)N[C@@H](CO)C(=O)N[C@@H](CO)C(=O)N[C@H](C(=O)N[C@@H](CC(N)=O)C(=O)N[C@H](C(=O)NCC(=O)N[C@@H](CO)C(=O)N[C@@H](CC(N)=O)C(=O)N[C@H](C(=O)N[C@@H](Cc1ccc(O)cc1)C(N)=O)[C@@H](C)O)C(C)C)[C@@H](C)O
notes: also called compound 82
Turning to B1, the “Ratio hCT/hAmylin binding” value in assay [1] turned out to be 140. In addition, the IC50 in assay [2] was 88.8 nM.

B2: N^ε1-[2-[2-[2-[[(4S)-4-carboxy-4-(19-carboxynonadecanoylamino)butanoyl]amino]ethoxy]ethoxy]acetyl]-[His14,Arg17,Pro21,Pro27,Arg34]-h-amylin (peptide)
peptide: K([AEEA-γGlu-C20 diacid])CNTATCATQRLAHFLRHSSPNFGAIPSSTNVGRNTY-NH2
modifications: disulfide 2-7; N-terminus assumed
SMILES: CC[C@H](C)[C@H](NC(=O)[C@H](C)NC(=O)CNC(=O)[C@H](Cc1ccccc1)NC(=O)[C@H](CC(N)=O)NC(=O)[C@@H]1CCCN1C(=O)[C@H](CO)NC(=O)[C@H](CO)NC(=O)[C@H](Cc1c[nH]cn1)NC(=O)[C@H](CCCNC(=N)N)NC(=O)[C@H](CC(C)C)NC(=O)[C@H](Cc1ccccc1)NC(=O)[C@H](Cc1c[nH]cn1)NC(=O)[C@H](C)NC(=O)[C@H](CC(C)C)NC(=O)[C@H](CCCNC(=N)N)NC(=O)[C@H](CCC(N)=O)NC(=O)[C@@H](NC(=O)[C@H](C)NC(=O)[C@@H]1CSSC[C@H](NC(=O)[C@@H](N)CCCCNC(=O)COCCOCCNC(=O)CC[C@H](NC(=O)CCCCCCCCCCCCCCCCCCC(=O)O)C(=O)O)C(=O)N[C@@H](CC(N)=O)C(=O)N[C@@H]([C@@H](C)O)C(=O)N[C@@H](C)C(=O)N[C@@H]([C@@H](C)O)C(=O)N1)[C@@H](C)O)C(=O)N1CCC[C@H]1C(=O)N[C@@H](CO)C(=O)N[C@@H](CO)C(=O)N[C@H](C(=O)N[C@@H](CC(N)=O)C(=O)N[C@H](C(=O)NCC(=O)N[C@@H](CCCNC(=N)N)C(=O)N[C@@H](CC(N)=O)C(=O)N[C@H](C(=O)N[C@@H](Cc1ccc(O)cc1)C(N)=O)[C@@H](C)O)C(C)C)[C@@H](C)O
notes: also called compound 84
With B2, the “Ratio hCT/hAmylin binding” value in assay [1] stood at 120. In assay [2], the IC50 was 88.9 nM.

B3: N^ε1-[2-[2-[2-[[(4S)-4-carboxy-4-(19-carboxynonadecanoylamino)butanoyl]amino]ethoxy]ethoxy]acetyl]-[Gly14,Arg17,Pro21,Pro27,Pro31]-h-amylin (peptide)
peptide: K([AEEA-γGlu-C20 diacid])CNTATCATQRLAGFLRHSSPNFGAIPSSTPVGSNTY-NH2
modifications: disulfide 2-7; N-terminus assumed
SMILES: CC[C@H](C)[C@H](NC(=O)[C@H](C)NC(=O)CNC(=O)[C@H](Cc1ccccc1)NC(=O)[C@H](CC(N)=O)NC(=O)[C@@H]1CCCN1C(=O)[C@H](CO)NC(=O)[C@H](CO)NC(=O)[C@H](Cc1c[nH]cn1)NC(=O)[C@H](CCCNC(=N)N)NC(=O)[C@H](CC(C)C)NC(=O)[C@H](Cc1ccccc1)NC(=O)CNC(=O)[C@H](C)NC(=O)[C@H](CC(C)C)NC(=O)[C@H](CCCNC(=N)N)NC(=O)[C@H](CCC(N)=O)NC(=O)[C@@H](NC(=O)[C@H](C)NC(=O)[C@@H]1CSSC[C@H](NC(=O)[C@@H](N)CCCCNC(=O)COCCOCCNC(=O)CC[C@H](NC(=O)CCCCCCCCCCCCCCCCCCC(=O)O)C(=O)O)C(=O)N[C@@H](CC(N)=O)C(=O)N[C@@H]([C@@H](C)O)C(=O)N[C@@H](C)C(=O)N[C@@H]([C@@H](C)O)C(=O)N1)[C@@H](C)O)C(=O)N1CCC[C@H]1C(=O)N[C@@H](CO)C(=O)N[C@@H](CO)C(=O)N[C@H](C(=O)N1CCC[C@H]1C(=O)N[C@H](C(=O)NCC(=O)N[C@@H](CO)C(=O)N[C@@H](CC(N)=O)C(=O)N[C@H](C(=O)N[C@@H](Cc1ccc(O)cc1)C(N)=O)[C@@H](C)O)C(C)C)[C@@H](C)O
notes: also called compound 71
Regarding B3, the “Ratio hCT/hAmylin binding” value in assay [1] was 32. For the same molecule, in assay [2], the IC50 came out at 1.53 nM.

B4: N^ε1-[2-[2-[2-[[(4S)-4-carboxy-4-(19-carboxynonadecanoylamino)butanoyl]amino]ethoxy]ethoxy]acetyl]-[Arg17,Pro21,Pro27,Arg34]-h-amylin (peptide)
peptide: K([AEEA-γGlu-C20 diacid])CNTATCATQRLANFLRHSSPNFGAIPSSTNVGRNTY-NH2
modifications: disulfide 2-7; N-terminus assumed
SMILES: CC[C@H](C)[C@H](NC(=O)[C@H](C)NC(=O)CNC(=O)[C@H](Cc1ccccc1)NC(=O)[C@H](CC(N)=O)NC(=O)[C@@H]1CCCN1C(=O)[C@H](CO)NC(=O)[C@H](CO)NC(=O)[C@H](Cc1c[nH]cn1)NC(=O)[C@H](CCCNC(=N)N)NC(=O)[C@H](CC(C)C)NC(=O)[C@H](Cc1ccccc1)NC(=O)[C@H](CC(N)=O)NC(=O)[C@H](C)NC(=O)[C@H](CC(C)C)NC(=O)[C@H](CCCNC(=N)N)NC(=O)[C@H](CCC(N)=O)NC(=O)[C@@H](NC(=O)[C@H](C)NC(=O)[C@@H]1CSSC[C@H](NC(=O)[C@@H](N)CCCCNC(=O)COCCOCCNC(=O)CC[C@H](NC(=O)CCCCCCCCCCCCCCCCCCC(=O)O)C(=O)O)C(=O)N[C@@H](CC(N)=O)C(=O)N[C@@H]([C@@H](C)O)C(=O)N[C@@H](C)C(=O)N[C@@H]([C@@H](C)O)C(=O)N1)[C@@H](C)O)C(=O)N1CCC[C@H]1C(=O)N[C@@H](CO)C(=O)N[C@@H](CO)C(=O)N[C@H](C(=O)N[C@@H](CC(N)=O)C(=O)N[C@H](C(=O)NCC(=O)N[C@@H](CCCNC(=N)N)C(=O)N[C@@H](CC(N)=O)C(=O)N[C@H](C(=O)N[C@@H](Cc1ccc(O)cc1)C(N)=O)[C@@H](C)O)C(C)C)[C@@H](C)O
notes: also called compound 78
B4: the “Ratio hCT/hAmylin binding” value in assay [1] stood at 60.7. In addition, the IC50 in assay [2] turned out to be 36.5 nM.
